Experimental data as given in the DeepSol protein solubility set.

Assay: soluble on expression in E. coli; label from the status in PepcDB or PDB records

| Sequence | soluble on expression in E. coli |
| --- | --- |
| MGHHHHHHSHDTISHQLEWRSLKSQETTGAGEDVEKQEQLLHCWWDCKLVQPLRKSVWQFLRNLELEIPFDPAIPLLGRYPKDYKSCCYKDTCTRMFIAALFTIAKTWNQPKCPTTIDWIKKMWHIYTMEYYAAIKNDEFMSFVGTWMKLETIILSKLSQGQ | not soluble |
| MKRLLILTALLPFVGFAQPINTLNNPNQPGYQIPSQQRMQTQMQTQQIQQKGMLNQQLKTQTQLQQQHLENQINNNSQRVLQSQPGERNPARQQMLPNTNGGMLNSNRNPDSSLNQQHMLPERRNGDMLNQPSTPQPDIPLKTIGP | soluble |
| MVIVINYKTYNESIGNRGLEIAKIAEKVSEESGITIGVAPQFVDLRMIVENVNIPVYAQHIDNINPGSHTGHILAEAIKDCGCKGTLINHSEKRMLLADIEAVINKCKNLGLETIVCTNNINTSKAVAALSPDCIAVEPPELIGTGIPVSKANPEVVEGTVRAVKEINKDVKVLCGAGISKGEDVKAALDLGAEGVLLASGVVKAKNVEEAIRELIKFI | soluble |
| MLNIDNIQSLIDNGEGYNVEFKVRVPSKVRELTEEICAFANADGGYLLIGVDDNGQVVDTNLENDKRSAIQGSISEISPTLHCELYSVNLGDKTVWVIDVPSSKDKPYIFSGSIYVREGANSQKLRTAEEIRSFFQECNKIYFDHIPCHWFNIYTDADAQMIKDFRTEAKLSPSTPRQTNILEHHHHHH | soluble |
| MSLKPSVVLNGDAITLGDIWENIGDKAGTPLANAPAPGKRITLETRWLMAVAQSYGIDWRPASPFERSVVERAGQSVDIRAIETELKEALSMEGAPAGASIEISNRQQLHIVIPATASPTVAVKDLAYDPRMNRFQAVVEAPAGAPNSVRFKVMGSVYASARIPVLAHAMGRGDVIREDDIQWVDVREEVVRRDIISNARMLVGQEPRYQLRAGVPVRTNEVQKPVVVAKNSSVTIMLRSKFMTLTAQGRAIEDGSVGDVIRVTNVQSKQTVDAKIEGPGQVSVMPGGLRTLANEGHHHHHH | not soluble |
| MKLMKKNTDDGAKIYTPLTLKLYDWWVLGVSNRLAWGCPTKEHLLPHFLEHLGNNHLDIGVGTGFYLTHVPESSLISLMDLNEASLNAASTRAGESKIKHKISHDVFDPYPAALHGQFDSISMFYLLHCLPGNISTKSCVIRNAAQALTDDGTLYGATILGDGVVHNSFGQKLMRIYNQKGIFSNTKDSEEGLTHILSEHFENVKTKVKGTVVMFSASGKK | not soluble |
| GAMDPEFQQSKVAPSSAASRPVLSSRSDQSQKNEVFLDVVERLSVLIASNGSLLKVDVQGEIRLKSFLPSGSEMRIGLTEEFSVGKSELRGYGPGIRVDEVSFHSSVNLDEFESHRILRLQPPQGELTVMRYQLSDDLPSPLPFRLFPSVQWDRGSGRLQVYLKLRCDLLSKSQALNVRLHLPLPRGVVSLSQELSSPEQKAELAEGALRWDLPRVQGGSQLSGLFQMDVPGPPGPPSHGLSTSASPLGLGPASLSFELPRHTCSGLQVRFLRLAFRPSGNANPHKWVRHLSHSDAYVIRI | soluble |
| MAHHHHHHMSVPEWARSEHSIEEAKEYLRTGNSVDFFELVSSHILREHPLDVAAFALDLVERISKLGNTLSARDYHPKRVEDNKYLQEKNVCEFLNEWILALLKERPDTDEARMSFHKRYLKSLVDGGGCSQCTSVN | not soluble |
| MGSDKIHHHHHHMRDHVEIGIGREARRTYSLDDISVVSSRRTRSSKDVDTTWHIDAYKFDLPFMNHPSDALASPEFVIEMGKQGGLGVINAEGLWGRHADLDEAIAKVIAAYEEGDQAAATRTLQELHAAPLDTELLSERIAQVRDSGEIVAVRVSPQNVREIAPIVIKAGADLLVIQGTLISAEHVNTGGEALNLKEFIGSLDVPVIAGGVNDYTTALHMMRTGAVGIIVGGGENTNSLALGMEVSMATAIADVAAARRDYLDETGGRYVHIIADGSIENSGDVVKAIACGADAVVLGSPLARAEEAAGKGYFWPAVAAHPRFPRGVVTESVDLDEAAPSLEQILHGPSTMPWGVENFEGGLKRALAKCGYTDLKSFQKVSLHVN | not soluble |
| MRIVTAAVMASTLAVSSLSHAAEVGSGDNWHPGEELTQRSTQSHMFDGISLTEHQRQQMRDLMQQARHEQPPVNVSELETMHRLVTAENFDENAVRAQAEKMANEQIARQVEMAKVRNQMYRLLTPEQQAVLNEKHQQRMEQLRDVTQWQKSSSLKLLSSSNSRSQMAGDPLEHHHHHH | not soluble |
| MGQKRMNKSNKLVIINRAIPGGGKTSLIKQIEELAKSLGHSISVHSTDEYFIQTDEEGIRHYVVDKKKLNEYHQNNQEAFKQALENRIDIVVCDNTNFESWQSKPYTDMAREFGYKILLIDFKNRHLETPMDYGWDVAQCIKKPRGIAKHYDYDFYLERVLVEPQDYEKQNRELSLKALEFLKYNFDFDVIFYSFGEQLMPILTRMLVSVSKSHRKRLENYGKDIKTLEHHHHHHLEHHHHHHLEHHHHHHLEHHHHHHLEHHHHHHLEHHHHHHLEHHHHHH | not soluble |
| SVGTTSVVKNSHEEVVQTLANSLFPAQFMNGNIHIPVAVQAVAGTYQNTAQTVHIWDPQQQPQQQTPQEQTPPPQQQQQQLQVTCSAQTVQVAEVEPQSQPQPSPELLLPNSLKPEEGLEVWKNWAQTKNAELEKDAQNRLAPIGRRQLLRFQEDLISSAVAELNYGLCLMTREARNGEGEPYDPDVLYYIFLCIQKYLFENGRVDDIFSDLYYVRFTEWLHEVLKDVQPRVTPLGYVLPSHVTEEMLWECKQLGAHSPSTLLTTLMFFNTKYFLLKTVDQHMKLAFSKVLRQTKKNPSNPKDKSTSIRYLKALGIHQTGQKVTDDMYAEQTENPENPLRCPIKLYDFYLFKCPQSVKGRNDTFYLTPEPVVAPNSPIWYSVQPISREQMGQMLTRILVIREIQEAIAVANASTMH | soluble |
| MGSDKIHHHHHHMLASDLLVIDFAQKDDVLKLYPEAPLLSSDKAQWDGIQLQYHRHPPHQLSENHSKQHRIIIHDRSPSPPMVEEMIEHRFQKRQFGYGDVTVVPADVLNSAYWNTEYEFITLSFEARTFARHTFDLTTATDIELVPSFSKPDQLIYSLGFALKSELESSGVGSRLYIDSLTAALMTHLLRHYSAQRSISRPQSGLAKCQLQKVIDFINQNLEQDLALAELAAIVQMSPSYFSTLFKHSTGLAPHQYVIQCRVDRAKQLLRQSNLTIAEIAYSLGFTHQSHLSRHFKRLVGVSPKVFIKSQ | not soluble |
| MVEEICHICNDKSTGKHYGAISCDGCKGFFRRSIRKRYHYQCRFEQNCDVTKNKRNACRACRLQKCVKAGMKSNAIQNERDAIGKRKKTTGAEKEDLIDQLVAAETLCQQLRSSVIKNTSSLAPYDCGKVKWNYEDARAATLDDIGKSIHQQLVLFIEWAKSLPQFSFLAQADQAALLKGGAASIIVLGVAYRSICLTVENTICLANDTLLPKEHATQVGDINCVVGRIIDEIVNPMRRLNMDLIEYVALKAILFFNPVVREINDQSPVENARYAFLRSLQRRCTDKALENMEDESMDCRSGKLLLLLPSLQAIAQQLVEDVQLARLFGLVNVDSLMEELILNDMKPSDPQILQTSLASPVNSSVKAEVELEE | soluble |
| MSSTECYGAPPHNYYQDWPTTHSYYPSVPSSYSPLNHHPADIWAAHPSNYIMGNGHVSPPATASGLSPPASRSSNSSAELPTGVTASQHNTYKWMHTKRSQRPAAPKKKVIDENGTNRTNFTTHQLTELEKEFHTAKYVNRTRRTEIASNLKLQEAQVKIWFQNRRMKEKKREKEKAFLARNTWESNSPTSSCSGEDVKNFK | not soluble |
| MGSDKIHHHHHHMEIEIATIGGYEEVGRQMTAVRAGDDIVIFDMGLNLSKVLVHDNVETEKMHSLDLIDMGAIPDDRVMSDLEGDVKAIVPTHGHLDHIGAISKLAHRYDAPIVGSPFTIELVKGEIESEQKFGVENDLVKMEAGGTMEIGDRCELEFVHVTHSIIDAINPVLHTPEGAVVYGLDKRMDHDPVLEDPIDMERFREIGREGEGVLCYIEDCTNAGKKGRTPSESTARRHLKDVLTSVADYDGGIVATTFSSHISRVSSLVEFAKEIGREPILLGRSMERYSGTAERMGRVNFPDDLGMFGHRKSVDRAFKRVMNEGKENFLPIVTGHQGEPQAMLTRMGRGETPYDIEDGDKIIFSASVIPEPTNKGQRYQSEQLLRMQGARIYDDIHVSGHLREEGHYQMLDALQPQHLIPAHQDMKGMAPYAKLAKSQGYKIGRDLHMTENGNTIQLVE | not soluble |
| MGSDKIHHHHHHMFHTIDFSDIFSSDYSNKISFKKGEIIHSYRDYEEKTPQIGAILEGTAVLEGPTNEGRWMINALIGQHSLFGMESLLETKTAPELTEYRVRALENGTVLFIDREFLLNYLYANPQFFHLILDEVIVRYLFTSKNYKNINQAPIVKVTRILVEIIELLHLHQTEGAIELPVYVTQTFLADYCRSSRARVTEVLEELRESGLLLSKKPITISSHENLLNQIDSFQTGNGLLTR | not soluble |
| MAHHHHHHMSIYCRLASPPVFLRALHTVSVSRDGWATVVFTDSHVVLHVEGTDENMTATCTLPKNLFAEYAVVETRFALHIPTLIDALLMLGPSVATASTRAVLAYPTDDAKLLVELTPTDRVAGGGSCGGFSGGGPMTQSDLGV | soluble |
| MGSDKIHHHHHHMFKRETKDFINIDPLQTGGKLTEEARQALLEWGDGYSVCDFCTTGRLDEIKTPPIHDFIHNQLPKFLGCDVARVTNGAREAKFAVMHSLAKKDAWVVMDENCHYSSYVAAERAGLNIALVPKTDYPDYAITPENFAQTIEETKKRGEVVLALITYPDGNYGNLPDVKKIAKVCSEYDVPLLVNGAYAIGRMPVSLKEIGADFIVGSGHKSMAASGPIGVMGMKEEWAEIVLRRSEKYKNKEVELLGCTARGATIITLMASFPHVRERIKRWDEEVEKARRFAAEMEKLGIKQLGDNPHNHDLMFFHAEVLYEISKKAKGGRFFLYRELKSRKIHGIKPGLTRYFKLSTYGLSDEEVDYVLNAFKEIIEKYS | not soluble |
| MSLTKLKKVMISVIAATLLLLAGCGSSAVVKTDAGSVTQDELYEAMKTTYGNEVVQQLTFKKILEDKYTVTEKEVNAEYKKYEEQYGDSFESTLSSNNLTKTSFKENLEYNLLVQKATEANMNVSESKLKTYYKTWEPDITVRHILVDDEATAKEIQTKLKNGEKFTDLAKEYSTDTATSTNGGLLDPFGPGEMDETFEKAAYALENKDDVSGIVKSTYGYHLIQLVKKTEKGTYAKEKANVKAAYIESQLTTENMTAALKKELKAANIDIKDSDLKDAFADYTEGHHHHHH | soluble |
| MGSDKIHHHHHHMQDKNFDKLAQKFAKNIYGTPKGEIRAAVLWRDLAPALAQFGDKKLRILDAGGGFGYFSQKLARLGHEVVLCDISAEMLAQAKEQIDASDTPLAIRLVHAPIQALSITEHGMFDLILCHAVVEWLADAKTTMEGLLTMLKPNGLFSLMFYNKEAMRFHALVSGNFDYVAADLKVKKKVRLTPTHPLYIHEVKLWFAQWQMALLKESGVRVIHDYLKKQQAADFDYQKLLSMELEYSQREPYISLGRYVHFLGQSTATHSE | not soluble |
| EPAHGRQHTPCLFCDRLFASAEETFSHCKLEHQFNIDSMVHKHGLEFYGYIKLINFIRLKNPTVEYMNSIYNPVPWEKDEYLKPVLEDDLLLQFDVEDLYEPVSTPFS | soluble |
| GMNLANIVQRGWEALGAGDFDTLVTDYVEKMIFIMPGQADVLKGRQAFRSALDNLGEILPPGFEITGLRQLEGENEIVSIVEWKSDKMIASQLSVLFKFEGDQIYEERWFVDTEQWKSVF | soluble |
| MGTLLIDVDGTVVDSYPGIREAFIHSMTSVGIPVPEESWLRRIPGPPMVETMRALGQSDSVTAAALACFRQQYDQISWRNSQLFDGWHDALSEWRSQGIRLFTATSKNEHLARLTLEYLGVADLFDFIGGADPTVGRETKADVIAYVLATTETSEHSPILMVGDRSHDTEGAAAFGIPTMLVTWGYGNEQEWSHADYHARNMAEAKGIVRDFFN | not soluble |
